The target of data set [1] is MTA1-A (residues 162–354) (human) (UniProt Q13330). Put plainly: SEC-MALS; gel-filtrated co-expressed complexes at 1 mg/ml reapplied to Superdex S200; Optilab T-rEX and DAWN HELEOS detectors.
The target of data set [2] is MTA1-C (residues 162–715) (human) (UniProt Q13330). Put plainly: affinity purification with mass spectrometry; Flag-tagged MTA1 fragments co-transfected with HDAC1 in HEK293F; complexes purified on FLAG resin; endogenous RBBP4/7 identified by peptide mass spectrometry; ratio by densitometry of the SDS-PAGE gel (ImageJ).
In data set [3] the target is MTA1-B (residues 162–546) (human) (UniProt Q13330). Described as above.
In data set [4] the target is T1, HDAC1 (residues 1–482), untagged (human, UniProt Q13547 1-482).
T1 construct: Histone deacetylase 1 (HDAC1), residues 1-482; source: HEK293F, co-transfected with MTA1 fragments, co-purified (FLAG resin through MTA1, TEV elution, Superdex S200)
T1 sequence (Q13547 whole entry, the tested form may be a part): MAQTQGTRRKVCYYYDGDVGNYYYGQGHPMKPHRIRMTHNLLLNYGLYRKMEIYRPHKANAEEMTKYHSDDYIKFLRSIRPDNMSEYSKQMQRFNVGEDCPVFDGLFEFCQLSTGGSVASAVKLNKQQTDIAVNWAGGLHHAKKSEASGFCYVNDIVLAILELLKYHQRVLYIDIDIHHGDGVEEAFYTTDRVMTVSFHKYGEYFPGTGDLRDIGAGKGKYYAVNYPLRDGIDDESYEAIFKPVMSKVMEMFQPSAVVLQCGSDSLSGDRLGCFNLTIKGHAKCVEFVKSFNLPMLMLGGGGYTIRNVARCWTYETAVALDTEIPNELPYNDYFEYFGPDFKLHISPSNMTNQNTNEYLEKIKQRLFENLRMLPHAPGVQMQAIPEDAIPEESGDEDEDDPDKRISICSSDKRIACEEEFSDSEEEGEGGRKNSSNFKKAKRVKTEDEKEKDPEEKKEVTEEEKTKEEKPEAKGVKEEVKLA
Put plainly: SAXS; purified co-expressed complexes, 1 to 5 mg/ml, 25°C, Diamond B21; ab initio envelopes. To be noted: both partners purified.

Data set [5] concerns the molecule itself. Put plainly: SEC-MALS; gel-filtrated co-expressed complexes at 1 mg/ml reapplied to Superdex S200; Optilab T-rEX and DAWN HELEOS detectors.
The target of data set [6] is T2, RBBP4 (residues 1–425), untagged (human, UniProt Q09028 1-425).
T2 construct: also called RbAp48; source: HEK293F, co-transfected with MTA1 fragments, co-purified (FLAG resin through MTA1, TEV elution, Superdex S200)
T2 sequence (Q09028 whole entry, the tested form may be a part): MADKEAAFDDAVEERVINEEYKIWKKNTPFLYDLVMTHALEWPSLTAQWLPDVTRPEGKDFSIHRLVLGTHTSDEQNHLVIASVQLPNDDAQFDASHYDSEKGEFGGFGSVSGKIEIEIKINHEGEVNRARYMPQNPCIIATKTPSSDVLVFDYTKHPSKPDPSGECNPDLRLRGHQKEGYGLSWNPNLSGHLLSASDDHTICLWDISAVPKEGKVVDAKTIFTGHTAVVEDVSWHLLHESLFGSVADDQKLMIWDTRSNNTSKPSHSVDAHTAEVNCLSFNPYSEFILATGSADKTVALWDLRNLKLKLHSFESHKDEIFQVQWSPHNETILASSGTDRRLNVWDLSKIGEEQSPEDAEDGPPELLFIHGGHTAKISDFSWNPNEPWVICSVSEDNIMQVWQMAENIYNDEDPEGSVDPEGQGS
The description is as above. To be noted: both partners purified.

The record followed here is publication PMC4841774 (eLife, 2016).

Molecule “MTA1-A (residues 162–354) (from UniProt Q13330 162-354) (domain or fragment)” gave a stoichiometry N (copies in the complex) in data set [1] of 2.
Turning to “endogenous RBBP4/7 (from UniProt Q09028 1-425) (natural protein)”, the ratio HDAC1:RBBP4/7 (gel densitometry) (RBBP4/7 per HDAC1) in data set [2] is 1.5; in data set [3] it was 1.

B1: MTA1-B (residues 162–546) (domain or fragment, human, UniProt Q13330 162-546, looked up)
chain: ADKGEIRVGNRYQADITDLLKEGEEDGRDQSRLETQVWEAHNPLTDKQIDQFLVVARSVGTFARALDCSSSVRQPSLHMSAAAASRDITLFHAMDTLHKNIYDISKAISALVPQGGPVLCRDEMEEWSASEANLFEEALEKYGKDFTDIQQDFLPWKSLTSIIEYYYMWKTTDRYVQQKRLKAAEAESKLKQVYIPNYNKPNPNQISVNNVKAGVVNGTGAPGQSPGAGRACESCYTTQSYQWYSWGPPNMQCRLCASCWTYWKKYGGLKMPTRLDGERPGPNRSNMSPHGLPARSSGSPKFAMKTRQAFYLHTTKLTRIARRLCREILRPWHAARHPYLPINSAAIKAECTARLPEASQSPLVLKQAVRKPLEAVLRYLETHPR
notes: Captured on FLAG resin by the tag, then released with TEV; Two copies in the dimeric MTA1-B:HDAC1:RBBP4 complex by MALS; not shown: His10, N-terminal, cleaved; Flag3, N-terminal, cleaved
In the case of B1, the binding result in data set [4] and in data set [6] was “binds” each time. Further, the stoichiometry N (commonly the number of molecules, sites or subunits per partner or assembly) in data set [5] came out at 2 copies in the complex.
